Measurements reported in patent US5625031A, “Peptide inhibitors of the p33^cdk2 and p34^cdc2 cell cycle regulatory kinases and human papillomavirus E7 oncoprotein” (Bristol-Myers Squibb Company, priority 1994, dated 1997).
Entries after “also recorded” stand apart in the source; their conditions may differ.

Experiments:
HPV18-E7 protein = molecular target: T1, HPV18-E7 protein (Human papillomavirus type 18, UniProt P06788); assay: biochemical; type: binding; details: E7 type and method not stated
T1 construct: made in house
T1 sequence (P06788 whole entry): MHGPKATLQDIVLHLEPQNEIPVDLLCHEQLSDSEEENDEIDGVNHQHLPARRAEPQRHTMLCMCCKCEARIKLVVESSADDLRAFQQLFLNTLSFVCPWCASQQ
Protocol: The association of bacterially expressed HPV18-E7 protein with the p107 30mer peptide was analyzed using an ELISA assay. In the experiment depicted in FIG. 3A, a 96-well cluster plate was coated with p107 30mer peptide and incubated with increasing concentration of a MBP-E7 fusion protein or the MBP protein as a control. […] In the experiment depicted in FIG. 3B, MBP-E7 fusion protein (100 ng) was incubated with a p107 30mer peptide-coated plate in the presence of increasing concentrations of free p107 9mer peptide.

E7-Rb complex = molecular target: T2, E7-Rb complex (Human papillomavirus type 18, UniProt P06788); assay: ELISA assay of competition for E7-Rb complex formation; type: binding; details: MBP-E7 coated plate, 100 ng Rb, increasing peptide concentrations
T2 construct: made in house; host or cells: bacteria (MBP-E7); baculovirus system (Rb)
T2 sequence (P06788 whole entry, one chain of several): as the sequence (P06788 whole entry) above
Protocol: To examine the effect of p107 peptide binding upon the E7-Rb interaction, an ELISA assay was used to monitor E7-Rb complex formation. 96-well cluster plates were coated with either MBP-E7 protein (O) or MBP alone as a control (.circle-solid.). The plates were incubated with increasing concentrations of baculovirus expressed Rb which was detected with monoclonal antibody αRb349 (Pharmingen, San Diego Calif.) (FIG. 4A). In a separate experiment, 96-well cluster plates were coated with MBP-E7 protein and incubated with 100 ng Rb in the presence of increasing concentrations of p107 9mer peptide (FIG. 4B). Binding is quantitated as an increase in optical density at 405 nm. […] A corresponding peptide from Rb protein (sequence MCSMYGICK [SEQ ID NO: 2]) also binds to the E7 oncoprotein and competes for the E7-Rb interaction.

MCSMYGICK [nine amino acid peptide derived from Rb]
binding to the E7 oncoprotein (HPV18-E7 protein): binds
competition for E7 association with Rb (E7-Rb complex): competes; also recorded: inhibits E7 binding to Rb
